For the assay, the target named is E. coli RNA polymerase holoenzyme Eσ^70 (His10-PPX-RNAP with σ^70) (E. coli) (UniProt P0A7Z4). The assay is described as follows: native MS.

The record followed here is paper doi:10.1101/2024.02.16.579611.

A word on the stoichiometry N: it is a count of units in the complex or per binding partner.

Substance “KorA (wild type), C-terminally His-tagged (from UniProt P03052) (natural protein)” yielded a stoichiometry N of 2.
